# Tested on: Escherichia coli TOP10
# Assay: shrunken log2 fold change of peptide-encoding DNA abundance (4.5 h post-induction vs induction); higher = less antimicrobial activity (less host growth inhibition)
# Conditions: time post-induction: 4.5 h; library: site-saturation at positions 5, 18, 19, 20
# 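Further: peptides expressed intracellularly from a pBAD plasmid library in pooled LB shake-flask culture, induced with 0.3% L-arabinose, DNA abundance read by NGS, three biological replicates, DESeq2 with apeglm shrinkage.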
row,Sequence,shrunken log2 fold change
1,RRIRKRPPRLPRPRPRPHTPPRP,0.0819
2,RRIRGRPPRLPRPRPRPWPMPRP,0.31
3,RRIRWRPPRLPRPRPRPYGEPRP,-0.0723
4,RRIRRRPPRLPRPRPRPWNCPRP,0.0332
5,RRIRQRPPRLPRPRPRPCRPPRP,-0.184
6,RRIRMRPPRLPRPRPRPNRGPRP,0.218
7,RRIRCRPPRLPRPRPRPVIMPRP,-0.604
8,RRIRCRPPRLPRPRPRPGWWPRP,0.054
9,RRIRSRPPRLPRPRPRPQAKPRP,0.0225
10,RRIRVRPPRLPRPRPRPEMAPRP,0.311
11,RRIRLRPPRLPRPRPRPRSCPRP,-0.0664
12,RRIRHRPPRLPRPRPRPSLMPRP,0.0202
13,RRIRQRPPRLPRPRPRPKEWPRP,-0.00145
14,RRIRCRPPRLPRPRPRPKGFPRP,0.00848
15,RRIRTRPPRLPRPRPRPIRLPRP,0.0213
16,RRIRNRPPRLPRPRPRPATYPRP,-1.05
17,RRIRIRPPRLPRPRPRPHAQPRP,0.142
18,RRIRGRPPRLPRPRPRPPACPRP,1.36
19,RRIRPRPPRLPRPRPRPWGRPRP,0.122
20,RRIRERPPRLPRPRPRPNQRPRP,-0.0506
21,RRIRGRPPRLPRPRPRPAFTPRP,0.436
22,RRIRLRPPRLPRPRPRPCFRPRP,0.0965
23,RRIRYRPPRLPRPRPRPMACPRP,-0.000921
24,RRIRNRPPRLPRPRPRPRYQPRP,-0.19
25,RRIRSRPPRLPRPRPRPYCWPRP,-0.419

row,Sequence,shrunken log2 fold change
1,RRIRVRPPRLPRPRPRPPEMPRP,0.116
2,RRIRVRPPRLPRPRPRPDYAPRP,-0.0204
3,RRIRGRPPRLPRPRPRPSCQPRP,0.925
4,RRIRQRPPRLPRPRPRPISIPRP,-0.93
5,RRIRGRPPRLPRPRPRPKGEPRP,0.197
6,RRIRARPPRLPRPRPRPHVSPRP,0.0459
7,RRIRMRPPRLPRPRPRPYEMPRP,0.0693
8,RRIRVRPPRLPRPRPRPLFFPRP,-0.121
9,RRIRPRPPRLPRPRPRPPRDPRP,0.521
10,RRIRDRPPRLPRPRPRPMYLPRP,-0.239
11,RRIRWRPPRLPRPRPRPVGCPRP,0.575
12,RRIRNRPPRLPRPRPRPHASPRP,0.065
13,RRIRDRPPRLPRPRPRPLQAPRP,0.365
14,RRIRYRPPRLPRPRPRPQSWPRP,0.0202
15,RRIRIRPPRLPRPRPRPHRKPRP,-0.551
16,RRIRQRPPRLPRPRPRPRLYPRP,0.0786
17,RRIRLRPPRLPRPRPRPKHAPRP,0.0823
18,RRIRSRPPRLPRPRPRPMGSPRP,-0.205
19,RRIRQRPPRLPRPRPRPHAQPRP,0.384
20,RRIRKRPPRLPRPRPRPFNLPRP,-0.0494
21,RRIRIRPPRLPRPRPRPFYNPRP,-0.756
22,RRIRERPPRLPRPRPRPQTHPRP,-0.359
23,RRIRDRPPRLPRPRPRPNYCPRP,0.0253
24,RRIRDRPPRLPRPRPRPGSRPRP,0.0273
25,RRIRHRPPRLPRPRPRPATLPRP,-0.24

row,Sequence,shrunken log2 fold change
1,RRIRNRPPRLPRPRPRPGKGPRP,0.101
2,RRIRNRPPRLPRPRPRPEANPRP,-0.0185
3,RRIRNRPPRLPRPRPRPEHIPRP,-0.313
4,RRIRSRPPRLPRPRPRPKPSPRP,0.263
5,RRIRRRPPRLPRPRPRPLKLPRP,-0.0808
6,RRIRGRPPRLPRPRPRPKIEPRP,0.566
7,RRIRGRPPRLPRPRPRPRRKPRP,0.742
8,RRIRGRPPRLPRPRPRPFSIPRP,-0.0155
9,RRIRYRPPRLPRPRPRPGWMPRP,-0.000507
10,RRIRGRPPRLPRPRPRPFTVPRP,-0.31
11,RRIRGRPPRLPRPRPRPFCEPRP,0.403
12,RRIRPRPPRLPRPRPRPKLGPRP,0.551
13,RRIRWRPPRLPRPRPRPTNSPRP,-0.39
14,RRIRSRPPRLPRPRPRPNLFPRP,-0.0477
15,RRIRGRPPRLPRPRPRPFPRPRP,1.01
16,RRIRNRPPRLPRPRPRPQRYPRP,-0.602
17,RRIRERPPRLPRPRPRPHIGPRP,0.00581
18,RRIRQRPPRLPRPRPRPDLNPRP,0.0947
19,RRIRTRPPRLPRPRPRPFFRPRP,0.234
20,RRIRWRPPRLPRPRPRPAVQPRP,0.792
21,RRIRFRPPRLPRPRPRPCNPPRP,-0.0333
22,RRIRHRPPRLPRPRPRPFFPPRP,-0.285
23,RRIRDRPPRLPRPRPRPPCKPRP,-0.129
24,RRIRSRPPRLPRPRPRPDLAPRP,0.444
25,RRIRRRPPRLPRPRPRPTNDPRP,0.263

row,Sequence,shrunken log2 fold change
1,RRIRVRPPRLPRPRPRPCRFPRP,-0.464
2,RRIRYRPPRLPRPRPRPRFLPRP,-0.42
3,RRIRFRPPRLPRPRPRPCRWPRP,0.0901
4,RRIRLRPPRLPRPRPRPSWYPRP,-0.294
5,RRIRWRPPRLPRPRPRPTLAPRP,0.754
6,RRIRPRPPRLPRPRPRPTIIPRP,-0.65
7,RRIRDRPPRLPRPRPRPRVIPRP,-0.305
8,RRIRNRPPRLPRPRPRPMICPRP,0.0101
9,RRIRNRPPRLPRPRPRPGIMPRP,-0.186
10,RRIRERPPRLPRPRPRPNCTPRP,-0.102
11,RRIRHRPPRLPRPRPRPIANPRP,-0.24
12,RRIRNRPPRLPRPRPRPPRIPRP,0.325
13,RRIRVRPPRLPRPRPRPVPVPRP,0.0573
14,RRIRQRPPRLPRPRPRPVQEPRP,0.00554
15,RRIRFRPPRLPRPRPRPDTYPRP,-0.221
16,RRIRTRPPRLPRPRPRPVYGPRP,-0.167
17,RRIRSRPPRLPRPRPRPAYPPRP,0.0454
18,RRIRHRPPRLPRPRPRPTSKPRP,-0.125
19,RRIRWRPPRLPRPRPRPKCIPRP,-0.217
20,RRIRERPPRLPRPRPRPTGRPRP,-0.146
21,RRIRARPPRLPRPRPRPGPEPRP,1.61
22,RRIRTRPPRLPRPRPRPIMNPRP,0.0436
23,RRIRARPPRLPRPRPRPWFQPRP,0.0762
24,RRIRRRPPRLPRPRPRPYQDPRP,0.00143
25,RRIRRRPPRLPRPRPRPAFMPRP,0.169

row,Sequence,shrunken log2 fold change
1,RRIRPRPPRLPRPRPRPPDLPRP,0.366
2,RRIRSRPPRLPRPRPRPIQKPRP,0.0496
3,RRIRYRPPRLPRPRPRPHKYPRP,-1.08
4,RRIRNRPPRLPRPRPRPRYMPRP,-1.3
5,RRIRGRPPRLPRPRPRPDCDPRP,0.841
6,RRIRFRPPRLPRPRPRPKQQPRP,0.146
7,RRIRLRPPRLPRPRPRPCETPRP,-0.155
8,RRIRKRPPRLPRPRPRPKPTPRP,0.7
9,RRIRWRPPRLPRPRPRPGIAPRP,0.411
10,RRIRERPPRLPRPRPRPICPPRP,-0.794
11,RRIRYRPPRLPRPRPRPGAIPRP,-0.284
12,RRIRERPPRLPRPRPRPIEKPRP,0.00242
13,RRIRVRPPRLPRPRPRPYDWPRP,-0.206
14,RRIRARPPRLPRPRPRPAQPPRP,0.723
15,RRIRPRPPRLPRPRPRPISYPRP,-0.163
16,RRIRIRPPRLPRPRPRPNDSPRP,-0.137
17,RRIRRRPPRLPRPRPRPIMLPRP,-0.272
18,RRIRERPPRLPRPRPRPFGEPRP,-0.122
19,RRIRKRPPRLPRPRPRPKIKPRP,0.447
20,RRIRMRPPRLPRPRPRPWCKPRP,0.0317
21,RRIRERPPRLPRPRPRPMDKPRP,-0.219
22,RRIRPRPPRLPRPRPRPRTLPRP,0.0704
23,RRIRFRPPRLPRPRPRPDNSPRP,-0.726
24,RRIRWRPPRLPRPRPRPVNWPRP,0.537
25,RRIRGRPPRLPRPRPRPQRAPRP,0.466

row,Sequence,shrunken log2 fold change
1,RRIRQRPPRLPRPRPRPQPWPRP,0.141
2,RRIRSRPPRLPRPRPRPWNMPRP,-0.077
3,RRIRRRPPRLPRPRPRPEGNPRP,-0.0565
4,RRIRTRPPRLPRPRPRPAEHPRP,-0.0944
5,RRIRARPPRLPRPRPRPKVFPRP,0.193
6,RRIRSRPPRLPRPRPRPYVNPRP,-0.283
7,RRIRCRPPRLPRPRPRPWPRPRP,0.398
8,RRIRLRPPRLPRPRPRPVHWPRP,0.4
9,RRIRVRPPRLPRPRPRPVEGPRP,0.112
10,RRIRLRPPRLPRPRPRPCPQPRP,-0.391
11,RRIRDRPPRLPRPRPRPQQAPRP,0.0257
12,RRIRQRPPRLPRPRPRPDSCPRP,0.0169
13,RRIRHRPPRLPRPRPRPCCMPRP,-0.43
14,RRIRYRPPRLPRPRPRPPKFPRP,-0.0892
15,RRIRSRPPRLPRPRPRPNFKPRP,-0.0661
16,RRIRVRPPRLPRPRPRPRGKPRP,0.252
17,RRIRNRPPRLPRPRPRPPAGPRP,0.637
18,RRIRNRPPRLPRPRPRPQTVPRP,-0.0578
19,RRIRRRPPRLPRPRPRPVHEPRP,0.381
20,RRIRARPPRLPRPRPRPYHPPRP,-0.482
21,RRIRGRPPRLPRPRPRPDQRPRP,0.55
22,RRIRSRPPRLPRPRPRPQQCPRP,-0.146
23,RRIRFRPPRLPRPRPRPDPDPRP,-0.113
24,RRIRDRPPRLPRPRPRPPWHPRP,0.148
25,RRIRLRPPRLPRPRPRPGIAPRP,-0.206

# — the supplement of paper PMC9112550, “Optimization of the antimicrobial peptide Bac7 by deep mutational scanning” (BMC Biology, 2022)
